In PMC10085699:
Substitutions are numbered along the chain they refer to.

Key:
SETX-HD-V1884T = molecular target: T1, SETX-HD-V1884T (Homo sapiens, UniProt Q7Z333 1674-2677, V1884T); assay: EMSA
T1 sequence: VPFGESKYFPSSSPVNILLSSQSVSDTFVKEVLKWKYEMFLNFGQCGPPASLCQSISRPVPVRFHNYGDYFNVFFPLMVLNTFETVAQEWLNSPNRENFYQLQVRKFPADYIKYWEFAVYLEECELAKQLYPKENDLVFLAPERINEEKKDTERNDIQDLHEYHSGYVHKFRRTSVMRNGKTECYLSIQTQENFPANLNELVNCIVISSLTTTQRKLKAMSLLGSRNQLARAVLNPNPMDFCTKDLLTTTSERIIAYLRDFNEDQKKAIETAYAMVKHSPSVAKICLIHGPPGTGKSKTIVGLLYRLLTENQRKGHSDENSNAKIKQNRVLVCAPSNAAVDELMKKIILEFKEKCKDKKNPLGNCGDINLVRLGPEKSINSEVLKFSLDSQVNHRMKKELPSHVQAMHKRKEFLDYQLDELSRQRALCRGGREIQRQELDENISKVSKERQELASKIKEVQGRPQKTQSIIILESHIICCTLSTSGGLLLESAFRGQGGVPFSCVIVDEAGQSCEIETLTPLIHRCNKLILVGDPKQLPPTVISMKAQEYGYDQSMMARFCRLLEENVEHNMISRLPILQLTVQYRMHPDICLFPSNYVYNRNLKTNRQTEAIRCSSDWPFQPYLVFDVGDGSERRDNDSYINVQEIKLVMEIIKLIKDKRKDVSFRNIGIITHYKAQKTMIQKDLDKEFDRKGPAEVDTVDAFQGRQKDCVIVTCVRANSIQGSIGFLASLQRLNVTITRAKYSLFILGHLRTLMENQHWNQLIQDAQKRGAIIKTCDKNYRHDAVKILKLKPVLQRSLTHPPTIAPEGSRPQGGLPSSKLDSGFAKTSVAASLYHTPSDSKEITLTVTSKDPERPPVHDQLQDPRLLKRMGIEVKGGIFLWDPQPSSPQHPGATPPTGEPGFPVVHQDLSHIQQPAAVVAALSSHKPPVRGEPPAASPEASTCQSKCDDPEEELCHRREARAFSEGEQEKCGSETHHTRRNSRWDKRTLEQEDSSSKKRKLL

SETX-HD-DE/AA = molecular target: T2, SETX-HD-DE/AA (Homo sapiens, UniProt Q7Z333 1674-2677, D2181A;E2182A); assay: EMSA
T2 sequence: T1 sequence with T211V, D508A, E509A

B1: ssRNA pRMS678 (61 nt) (ssRNA)
RNA: UUGUCUUCUCAUAAAUUUAAUCCCCGUACGCUUAUACUCCUUUAACUACCCAGUCUUCCCG
B1: binds (SETX-HD-V1884T); binds (SETX-HD-DE/AA).
